Data as given in US20260098092A1 (CHULALONGKORN UNIVERSITY, published 2026).
Where two headings read alike, the source gives them in different places.

Tests used:
[1] = target: T1, recombinant human PD-1 His-tag protein (R&D Systems) (human, UniProt Q15116 25-167); assay: SPR, Biacore T200, as in Example 8 (antibody on Protein G chip, PD-1 His-tag injected)
T1 construct: Bought reagent; Used for the ELISA (coated) and for SPR (analyte); also called PD-1 protein; human PD-1 protein; not shown: His-tag
Method: (§1) The Biacore T200 instrument, equipped with a Protein G sensor chip (GE Healthcare), was used to determine the binding kinetics between chimeric anti-PD-1 antibodies and PD-1 protein. Each purified chimeric anti-PD-1 antibody (1 μg/mL) was injected into the chip with a flow rate of 30 μL/min for 60 sec. […] The HBS-EP+buffer (GE Healthcare) was used as a buffer blank and diluent. The association constant (kₒₙ), dissociation constant (koff), and equilibrium constant (KD) values were calculated using Biacore T200 evaluation software (version 3.1) with a 1:1 Langmuir binding model curve fitting.

[2] = target: T2, human PD-1 on PD-1-expressing Jurkat effector cells (human, UniProt Q15116 25-288); assay: cell-based or functional assay
[3] = target: T1, recombinant human PD-1 His-tag protein …; assay: SPR, Biacore T200, antibody captured on Protein G chip, PD-1 His-tag injected, single-cycle kinetics, 1:1 model
Method: as §1

[4] = target: T2, human PD-1 on PD-1-expressing Jurkat …; assay: cell-based or functional assay; remark: listed apart in the source
[5] = target: T1, recombinant human PD-1 His-tag protein …; assay: ELISA, PD-1 His-tag coated on plate, anti-human IgG Fc-HRP detection
Method: ELISA technique was used to select hybridoma mini-pools producing anti-PD-1 antibodies using the following procedure. MaxiSorp ELISA plate was coated with PD-1 His-tag (R&D System) in PBS buffer (10 ng/100 μL/well) at 4° C. overnight. […] The culture supernatant of each mini-pool (100 μL) was added to the plate then incubated for 1 hour at 37° C. After washing, the plate was probed with goat anti-mouse IgG Fcγ-HRP (Jackson Immuno Research) diluted 1:8,000 in PBST (100 μL/well) and incubated for 1 hour at 37° C. […] 1 M H₂SO₄ (50 μL/well) was used to stop the reaction. […] Hybridoma mini-pools with absorbance values of more than 1.0 were selected for further screening.
The purified chimeric antibodies were 2-fold serial diluted for eleven rounds starting from […] until reaching the final concentration of 0.977 ng/mL. The PD-1 binding activity of purified chimeric antibodies was evaluated by ELISA following the procedure mentioned in Example 2, while the goat anti-human IgG Fcγ-HRP antibody (Jackson Immuno Research) diluted 1:10.000 in PBST was used to detect chimeric antibodies.

[6] = target: T2, human PD-1 on PD-1-expressing Jurkat …; assay: cell-based or functional assay; remark: listed apart in the source
[7] = target: T2, human PD-1 on PD-1-expressing Jurkat …; assay: cell-based or functional assay; remark: listed apart in the source

T2 sequence (Q15116 25-288): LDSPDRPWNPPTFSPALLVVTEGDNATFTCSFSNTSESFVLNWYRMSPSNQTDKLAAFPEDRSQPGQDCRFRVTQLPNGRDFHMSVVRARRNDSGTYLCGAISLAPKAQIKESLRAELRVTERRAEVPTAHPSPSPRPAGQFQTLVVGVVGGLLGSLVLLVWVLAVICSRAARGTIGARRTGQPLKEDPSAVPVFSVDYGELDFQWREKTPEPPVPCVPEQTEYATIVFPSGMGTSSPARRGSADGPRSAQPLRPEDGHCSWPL
T1 sequence (Q15116 25-167 limits assumed): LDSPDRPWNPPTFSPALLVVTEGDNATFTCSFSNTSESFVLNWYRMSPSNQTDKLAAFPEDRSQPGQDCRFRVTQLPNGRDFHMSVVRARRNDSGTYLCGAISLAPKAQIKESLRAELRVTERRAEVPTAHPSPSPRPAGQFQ

Binder	Kd [1] [nM]	koff [1] [s⁻¹]	kon [1] [M⁻¹ s⁻¹]	PD-1/PD-L1 blockade bioassay, IC50 [2] [ng/mL]	Kd [3] [nM]	koff [3] [s⁻¹]	kon [3] [M⁻¹ s⁻¹]	PD-1/PD-L1 blockade bioassay, IC50 [4] [ng/mL]	EC50 [5] [µg/mL]	IC50 (read off the curve) [6] [µg/mL]	IC50 (read off the curve) [7] [µg/mL]
zCUSB0125.9 (antibody, human IgG4, V domains shown, domain: human IgG4 constant region; Humanized; human IgG4 S228P and kappa constant regions; also called CUSB0125-BMVH.3 with CUSB0125-BMVL.3; not shown: human kappa constant region) VH: QVQLQESGPGLVKPSQTLSLTCTVSGYSITSDYAWNWIRQPPGKGLEWMGYIYYSGTTSYNPSLKSRISITRDTSKNQFSLKLSSVTAADTAVYYCARNYGSAFYYFDYWGQGTTLTVSS VL: DIQMTQSPSSVSASVGDRVTITCHASQGISSNIGWLQQKPGKAFKGLIYRGTNLEDGVPSRFSGSGSGTDYTLTISSLQPEDFATYYCVQYAQFPPTFGGGTKLEIK	0.249	0.000746	2.99e+06	462							
xCUSB0125 (antibody, human IgG4, V domains shown, Chimeric: mouse variable regions joined to human IgG4/kappa constant regions; also called chimeric CUSB0125; not shown: human IgG4 constant region, UniProt P01861; human kappa constant region, UniProt P01834) VH: DVQLRESGPGLVKPSQSLSLTCTVTGYSITSDYAWNWIRQFPGNKLEWMGYIYYSGTTSYNPSLKSRISITRDTSKNQFFLQLNSVTTEDTATYYCARNYGSAFYYFDYWGQGTTLTVSS VL: DILMTQSPSSMSVSLGDTVTITCHASQGISSNIGWLQQKPGKSFKGLIYRGTNLEDGVPSRFSGSGSGADYSLTISSLESEDFADYYCVQYAQFPPTFGGGTKLEIK					0.18	0.000512	2.84e+06	302	0.0201	~0.3	
xCUSB0103 (antibody, human IgG4, V domains shown, Chimeric: mouse variable regions joined to human IgG4/kappa constant regions; also called chimeric CUSB0103; not shown: human IgG4 constant region, UniProt P01861; human kappa constant region, UniProt P01834) VH: DVKLVESGGGLVKPGGSLKLSCAASGFTFSSYTMSWVRQTPEKRLEWVAAISGGGSYTYYADSVKGRFTISRDNAKNTLSLQMSSLKSEDTAMYFCTSPYDFAMDYWGQGTSVTVSS VL: DIQMTQTTSSLSASLGDRVTISCRASQDITNYLNWYQQKPDGSVKLLIYYTSRLHSGVPSRFRGSGSGTDYSLTISNLEQEDIATYFCQQGNTLPWTFGGGTKLEIK					0.448	0.000292	653000	593	0.0284		
xCUSB0123 (antibody, human IgG4, V domains shown, Chimeric: mouse variable regions joined to human IgG4/kappa constant regions; also called chimeric CUSB0123; not shown: human IgG4 constant region, UniProt P01861; human kappa constant region, UniProt P01834) VH: QVQLQQSGPELVRPGESVKISCKGSGYTFTDYVMHWVKQSHAKSLEWIGVITIYNDITNYNQKFKGKATMTIDKSSSTAYMELARLTSEDSAIYYCAREGYDSYWYFDVWGAGTTVTVSS VL: DVLMTQTPLSLPVSLGDQASISCRSSQTIVHSNGNTYLEWYLQKPGQSPKLLIYKVSNRFSGVPDRFSGSGSGTDFTLKISRVEAEDLGVYYCFQGSHLPYTFGGGTKLEIK					1.23	0.000366	298000	957	0.0353		
xCUSB0124 (antibody, human IgG4, V domains shown, Chimeric: mouse variable regions joined to human IgG4/kappa constant regions; also called chimeric CUSB0124; not shown: human IgG4 constant region, UniProt P01861; human kappa constant region, UniProt P01834) VH: QIQLVQSGPELKKPGETVKISCKASGYIFTNYGVTWVKQTPGKGLKWMTWINTNTGEPTSAEEFKGRFDFSSETSATTAYLQINNLKNEDTATYFCVRIRENAMDYWGQGTSVTVSS VL: DIQMTQSPASQSASLGESVTITCLASQTIGTWLAWYQQKPGKSPQLLIYAATRLAVGVPSRFSGSGSGTKFSFKISRLQAEDFVSYYCQQLYSTPFTFGSGTKLEIK					5.92	0.000912	154000	2930	0.0894		

More lines, now with the values ahead:

Kd [1] [nM]	koff [1] [s⁻¹]	kon [1] [M⁻¹ s⁻¹]	PD-1/PD-L1 blockade bioassay, IC50 [2] [ng/mL]	Kd [3] [nM]	koff [3] [s⁻¹]	kon [3] [M⁻¹ s⁻¹]	PD-1/PD-L1 blockade bioassay, IC50 [4] [ng/mL]	EC50 [5] [µg/mL]	IC50 (read off the curve) [6] [µg/mL]	IC50 (read off the curve) [7] [µg/mL]	Binder
3.28	0.00944	2.88e+06	2410								zCUSB0125.3 (antibody, human IgG4, V domains shown, domain: human IgG4 constant region; Humanized; human IgG4 S228P and kappa constant regions; also called CUSB0125-BMVH.1 with CUSB0125-BMVL.3; not shown: human kappa constant region) VH: QVQLQESGPGLVKPSQTLSLTCTVSGYSITSDYAWNWIRQPPGKGLEWIGYIYYSGTTSYNPSLKSRVTISVDTSKNQFSLKLSSVTAADTAVYYCARNYGSAFYYFDYWGQGTTLTVSS VL: DIQMTQSPSSVSASVGDRVTITCHASQGISSNIGWLQQKPGKAFKGLIYRGTNLEDGVPSRFSGSGSGTDYTLTISSLQPEDFATYYCVQYAQFPPTFGGGTKLEIK
0.182	0.000579	3.18e+06	312								zCUSB0125.12 (antibody, human IgG4, V domains shown, domain: human IgG4 constant region; Humanized; human IgG4 S228P and kappa constant regions; also called CUSB0125-BMVH.4 with CUSB0125-BMVL.3; not shown: human kappa constant region) VH: QVQLQESGPGLVKPSQTLSLTCTVSGYSITSDYAWNWIRQFPGKKLEWMGYIYYSGTTSYNPSLKSRISITRDTSKNQFSLKLSSVTAADTAVYYCARNYGSAFYYFDYWGQGTTLTVSS VL: DIQMTQSPSSVSASVGDRVTITCHASQGISSNIGWLQQKPGKAFKGLIYRGTNLEDGVPSRFSGSGSGTDYTLTISSLQPEDFATYYCVQYAQFPPTFGGGTKLEIK
0.227	0.000721	3.18e+06	297								zCUSB0125.6 (antibody, human IgG4, V domains shown, domain: human IgG4 constant region; Humanized; human IgG4 S228P and kappa constant regions; also called CUSB0125-BMVH.2 with CUSB0125-BMVL.3; not shown: human kappa constant region) VH: QVQLQESGPGLVKPSQTLSLTCTVSGYSITSDYAWNWIRQPPGKGLEWMGYIYYSGTTSYNPSLKSRITISRDTSKNQFSLKLSSVTAADTATYYCARNYGSAFYYFDYWGQGTTLTVSS VL: DIQMTQSPSSVSASVGDRVTITCHASQGISSNIGWLQQKPGKAFKGLIYRGTNLEDGVPSRFSGSGSGTDYTLTISSLQPEDFATYYCVQYAQFPPTFGGGTKLEIK
				0.083	0.000193	2.3e+06	372	0.0154		~0.4	xCUSB0136 (antibody, human IgG4, V domains shown, Chimeric: mouse variable regions joined to human IgG4/kappa constant regions; also called chimeric CUSB0136; xCUSBO136; not shown: human IgG4 constant region, UniProt P01861; human kappa constant region, UniProt P01834) VH: QVQLKESGPGLVAPSQSLSITCTVSGFSLTTYDIIWIRQSPGKGLEWLGVIWTGGDTNYNSAFMSRLSISKDNSKSQIFLKMNSLQTDDTAIYYCVRDWAYWGQGTLVTVST VL: NIVLTQSPASLAVSLGQRATISCRASESVDNYGNSFIQWYQQKPGQPPKLLIYFASNLQSGVPARFSGSGSRTDFTLTIDPVEADDAATYYCHQNNEDPFTFGSGTKLEIK
				0.577	0.000285	493000	430	0.0437			xCUSB0126 (antibody, human IgG4, V domains shown, Chimeric: mouse variable regions joined to human IgG4/kappa constant regions; also called chimeric CUSB0126; not shown: human IgG4 constant region, UniProt P01861; human kappa constant region, UniProt P01834) VH: VKLVESGGDLVKPGGSLKLSCAASGFPFSSYLMSWVRQTPEKRLEWVAAISGGGRDTYYPDNVKGRFTISRDNARNILYLQMSSLRSEDTAVYYCATRGSYAMDYWGQGTSVTVSS VL: DIQMTQSPASQSASLGESVTITCLASQTIGTWLAWYQQKPGKSPQILIYAATNLADGVPSRFSGSGSGTKFSFKISSLQAEDFVSYYCQQLYSIPWTFGGGTKLEIK
				0.621	0.000293	471000	455	0.0347			xCUSB0129 (antibody, human IgG4, V domains shown, Chimeric: mouse variable regions joined to human IgG4/kappa constant regions; also called chimeric CUSB0129; not shown: human IgG4 constant region, UniProt P01861; human kappa constant region, UniProt P01834) VH: VKLVESGGGLVKPGGSLKLSCAASGFPFSSYLMSWVRQTPEKRLEWVAAISGGGRDTYYPDSVKGRFTISRDNARNILYLQMSSLRSEDTALYYCARRGSYAMDYWGQGTSVTVSS VL: DIQMTQSPASQSASLGESVTITCLASQTIGTWLAWYQQKPGKSPQILIYDATNLADGVPSRFSGSGSGTKFSFKISSLQAEDFVSYYCQQLYSIPWTFGGGTKLEIK
